Experimental data taken from publication PMC12283967 (Nature Communications, 2025).
Where two headings read alike, the source gives them in different places.

What was measured:
SEC [1] = target: the molecule itself; assay: SEC
SEC [2] = target: the molecule itself; assay: SEC; remark: listed apart in the source

Protein	stoichiometry N (SEC [1])	stoichiometry N (SEC [2])
Sumo-His-tagged PFKM WT (enzyme, human, UniProt P08237 1-780, looked up) MTHEEHHAAKTLGIGKAIAVLTSGGDAQGMNAAVRAVVRVGIFTGARVFFVHEGYQGLVDGGDHIKEATWESVSMMLQLGGTVIGSARCKDFREREGRLRAAYNLVKRGITNLCVIGGDGSLTGADTFRSEWSDLLSDLQKAGKITDEEATKSSYLNIVGLVGSIDNDFCGTDMTIGTDSALHRIMEIVDAITTTAQSHQRTFVLEVMGRHCGYLALVTSLSCGADWVFIPECPPDDDWEEHLCRRLSETRTRGSRLNIIIVAEGAIDKNGKPITSEDIKNLVVKRLGYDTRVTVLGHVQRGGTPSAFDRILGSRMGVEAVMALLEGTPDTPACVVSLSGNQAVRLPLMECVQVTKDVTKAMDEKKFDEALKLRGRSFMNNWEVYKLLAHVRPPVSKSGSHTVAVMNVGAPAAGMNAAVRSTVRIGLIQGNRVLVVHDGFEGLAKGQIEEAGWSYVGGWTGQGGSKLGTKRTLPKKSFEQISANITKFNIQGLVIIGGFEAYTGGLELMEGRKQFDELCIPFVVIPATVSNNVPGSDFSVGADTALNTICTTCDRIKQSAAGTKRRVFIIETMGGYCGYLATMAGLAAGADAAYIFEEPFTIRDLQANVEHLVQKMKTTVKRGLVLRNEKCNENYTTDFIFNLYSEEGKGIFDSRKNVLGHMQQGGSPTPFDRNFATKMGAKAMNWMSGKIKESYRNGRIFANTPDSGCVLGMRKRALVFQPVAELKDQTDFEHRIPKEQWWLKLRPILKILAKYEIDLDTSDHAHLEHITRKRSGEAAV	4	2
Sumo-His-tagged PFKM F639L (enzyme, human, UniProt P08237 1-780, looked up) MTHEEHHAAKTLGIGKAIAVLTSGGDAQGMNAAVRAVVRVGIFTGARVFFVHEGYQGLVDGGDHIKEATWESVSMMLQLGGTVIGSARCKDFREREGRLRAAYNLVKRGITNLCVIGGDGSLTGADTFRSEWSDLLSDLQKAGKITDEEATKSSYLNIVGLVGSIDNDFCGTDMTIGTDSALHRIMEIVDAITTTAQSHQRTFVLEVMGRHCGYLALVTSLSCGADWVFIPECPPDDDWEEHLCRRLSETRTRGSRLNIIIVAEGAIDKNGKPITSEDIKNLVVKRLGYDTRVTVLGHVQRGGTPSAFDRILGSRMGVEAVMALLEGTPDTPACVVSLSGNQAVRLPLMECVQVTKDVTKAMDEKKFDEALKLRGRSFMNNWEVYKLLAHVRPPVSKSGSHTVAVMNVGAPAAGMNAAVRSTVRIGLIQGNRVLVVHDGFEGLAKGQIEEAGWSYVGGWTGQGGSKLGTKRTLPKKSFEQISANITKFNIQGLVIIGGFEAYTGGLELMEGRKQFDELCIPFVVIPATVSNNVPGSDFSVGADTALNTICTTCDRIKQSAAGTKRRVFIIETMGGYCGYLATMAGLAAGADAAYIFEEPFTIRDLQANVEHLVQKMKTTVKRGLVLRNEKCNENYTTDLIFNLYSEEGKGIFDSRKNVLGHMQQGGSPTPFDRNFATKMGAKAMNWMSGKIKESYRNGRIFANTPDSGCVLGMRKRALVFQPVAELKDQTDFEHRIPKEQWWLKLRPILKILAKYEIDLDTSDHAHLEHITRKRSGEAAV	2	–
